This is an account of results in publication PMC4080450, “The pseudo GTPase CENP-M drives human kinetochore assembly” (eLife, 2014).

The target of this assay is T1, CENP-H/His-CENP-K complex (human, UniProt Q9H3R5 1-247; Q9BS16 1-269).
T1 construct: human CENP-H, without any tag; human CENP-K; also called CENP-H/K complex; source: Tnao38 insect cells, co-expressed, purified; not shown: His6, N-terminal, kept
The experiment in a line: SEC; analytical SEC co-elution (Superdex200 5/150 or Superose6 5/150), 4°C; proteins mixed in 50 µl, at least 2 hr on ice; SEC buffer with 150 mM NaCl. The settings on record: both partners purified.

T1 sequence (Q9H3R5 whole entry, chain 1 of 2): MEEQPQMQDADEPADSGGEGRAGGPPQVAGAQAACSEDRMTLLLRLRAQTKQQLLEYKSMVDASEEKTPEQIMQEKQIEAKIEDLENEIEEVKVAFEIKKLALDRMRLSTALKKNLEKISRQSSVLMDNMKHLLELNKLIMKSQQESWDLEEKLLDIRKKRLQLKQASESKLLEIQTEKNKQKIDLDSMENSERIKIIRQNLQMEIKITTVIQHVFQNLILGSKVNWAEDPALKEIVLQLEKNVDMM
T1 sequence (Q9BS16 whole entry, chain 2 of 2): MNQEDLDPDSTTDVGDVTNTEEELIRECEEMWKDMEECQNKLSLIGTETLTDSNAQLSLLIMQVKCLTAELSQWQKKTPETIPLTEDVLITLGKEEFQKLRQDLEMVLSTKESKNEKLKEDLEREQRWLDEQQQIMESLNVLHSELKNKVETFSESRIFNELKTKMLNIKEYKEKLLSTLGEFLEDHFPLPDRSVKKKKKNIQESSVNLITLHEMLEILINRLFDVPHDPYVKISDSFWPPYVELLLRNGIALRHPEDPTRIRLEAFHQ

B1: His-CENP-I^57–281 (domain or fragment, human, UniProt Q92674 57-281, looked up)
chain: ADDQAEEDALQMAVGYFEKGPIKASQNKDKTLEKHLKTVENVAWKNGLASEEIDILLNIALSGKFGNAVNTRILKCMIPATVISEDSVVKAVSWLCVGKCSGSTKVLFYRWLVAMFDFIDRKEQINLLYGFFFASLQDDALCPYVCHLLYLLTKKENVKPFRVRKLLDLQAKMGMQPHLQALLSLYKFFAPALISVSLPVRKKIYFKNSENLWKTALLAVKQRNR
notes: CENP-I residues 57-281; no methods paragraph tells how this fragment was made; also called N-terminal region of CENP-I; I^N; source: recombinant, expressed in a soluble form
With B1, the binding result is given as “binds”.
